From patent US10597674B2, “HPPD variants and methods of use” (BASF Agricultural Solutions Seed, US LLC, priority 2015, dated 2020)
Where a chain is given by its changes, count along the chain named.

B1: 92 (protein)
chain: MADLYENPMGLMGFEFIEFASPTPGTLEPIFEIMGFTKVATHRSKNVHLYRQGEINLILNNEPNSIASYFAAEHGPSVCGMAFRVKDSQKAYNRALELGAQPIHIDTGPMELNLPAIKGIGGAPLYLIDRFGEGSSIYDIDFVYLEGVERNPVGAGLKVIDHLTHNVYRGRMVYWANFYEKLFNFREARYFDIKGEYTGLTSKAMSAPDGMIRIPLNEESSKGAGQIEEFLMQFNGEGIQHVAFLTDDLVKTWDALKKIGMRFRTAPGDEYYEMLEGRLPDHGEPVDQLQARGILLDGSSVEGDKRLLLQIFSETLMGPVFFEFIQRKGHDGFGPDSFKVLFESAERDQVRRGVLTAD
modifications: mutant HPPD polypeptide
B2: 39 (protein)
chain: B1 chain with A204L, R264M, H330D, A345V
modifications: mutant HPPD polypeptide
B3: 40 (protein)
chain: B1 chain with A204M, R264M, H330D, A345V
modifications: mutant HPPD polypeptide
B4: 44 (protein)
chain: B1 chain with R213L, R264M, H330D, A345V
modifications: mutant HPPD polypeptide
B5: 67 (protein)
chain: B1 chain with R264K, H330D, A345V
modifications: mutant HPPD polypeptide
B6: 72 (protein)
chain: B1 chain with R264M, G268R, H330D, A345V
modifications: mutant HPPD polypeptide
B7: 73 (protein)
chain: B1 chain with R264M, G268S, H330D, A345V
modifications: mutant HPPD polypeptide
B8: 76 (protein)
chain: B1 chain with R264M, E270R, H330D, A345V
modifications: mutant HPPD polypeptide
B9: 77 (protein)
chain: B1 chain with R264M, E270S, H330D, A345V
modifications: mutant HPPD polypeptide
B10: 46 (protein)
chain: B1 chain with R264M, T315M, H330D, A345V
modifications: mutant HPPD polypeptide
B11: 52 (protein)
chain: B1 chain with R264M, H330D, D331S, A345V
modifications: mutant HPPD polypeptide
B12: 56 (protein)
chain: B1 chain with R264M, H330D, K339R, A345V
modifications: mutant HPPD polypeptide
B13: 57 (protein)
chain: B1 chain with R264M, H330D, K339T, A345V
modifications: mutant HPPD polypeptide
B14: 81 (protein)
chain: B1 chain with R264M, H330D, V340A, A345V
modifications: mutant HPPD polypeptide
B15: 83 (protein)
chain: B1 chain with R264M, H330D, V340G, A345V
modifications: mutant HPPD polypeptide
B16: SEQ ID NO: 1: reference wild-type Pseudomonas fluorescens HPPD polypeptide (protein, listed as Pseudomonas fluorescens)
chain: B1 chain with R264M, G268P, E270T, H330D, P335E, D336G, S337N, V340A, A345I
modifications: 4-hydroxyphenylpyruvate dioxygenase (HPPD; Pseudomonas fluorescens) (1)..(358)
B17: SEQ ID NO: 103 (protein)
chain: B1 chain with R213K, R264L, T315R, H330D, D336H, S344Q, A345M
modifications: mutant HPPD polypeptide
B18: 32 (protein)
chain: B1 chain with R264M, G268R, H330D, D336H, A345V
modifications: mutant HPPD polypeptide
B19: 96 (protein)
chain: B1 chain with R213K, R264M, H330D, D336H, A345V
modifications: mutant HPPD polypeptide
B20: SEQ ID NO:104 (protein)
chain: B1 chain with R213K, R264L, H330D, D336H, S344Q, A345M
modifications: mutant HPPD polypeptide

Each molecule was assayed on HPPD polypeptides (wild-type SEQ ID NO:1 and mutants) (assay: not given). Details: kapp in presence of 50 μM Cmpd. 1, normalised to kapp without inhibitor; low substrate concentration.

In order of rising Residual activity:
1. B14  17%
2. B8  19%
3. B9  19%
4. B6  25%
5. B12  27%
6. B7  29%
7. B11  31%
8. B10  32%
9. B13  33%
10. B2  34%
11. B15  53%
12. B4  58%
13. B1  61%
14. B3  65%
15. B5  73%

Same assay, conditions: total change in signal in presence of 50 μM Cmpd. 1, normalised to that without inhibitor; low substrate concentration

In order of rising Residual turnover:
1. B9  44%
2. B8  50%
3. B14  51%
4. B6  55%
5. B11  57%
6. B7  58%
7. B10  59%
8. B12  59%
9. B2  61%
10. B13  68%
11. B3  77%
12. B4  78%
13. B1  81%
14. B15  87%
15. B5  96%

These molecules were tested on E. coli cells expressing an HPPD polypeptide (assay: Brown color bioassay in liquid culture, residual brown color formation (BCF), OD440 after 96 hours). Details: brown color formation in absence of Cmpd. 1, culture supernatant after 96 hours, 5 mM HPP.
Format: cell-based
In short: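 E. coli expressing HPPD variants were grown at 30 degrees Celsius from OD600 0.3-0.5 in LB with 5 mM HPP, with or without herbicide (e.g. Cmpd. 1, 1000 μM). After 96 hours, supernatant OD440 was measured; residual brown colour formation compares pigment with and without inhibitor.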

In order of falling “Control BCF OD440nm” value:
1. B6  2.77
2. B7  2.75
3. B8  2.73
4. B9  2.57
5. B10  2.47
6. B11  2.08
7. B14  2.05
8. B12  1.98
9. B5  1.93
10. B3  1.89
11. B15  1.83
12. B2  1.63
13. B4  1.60
14. B13  1.39
15. B1  1.38

Same assay, conditions: brown color formation with Cmpd. 1 (1000 μM) relative to without, after 96 hours

In order of falling “Residual BCF OD440nm [%]” value:
1. B6  72%
2. B7  72%
3. B5  71%
4. B12  68%
5. B9  67%
6. B10  66%
7. B11  65%
8. B1  59%
9. B3  58%
10. B8  58%
11. B2  55%
12. B15  47%
13. B13  46%
14. B4  40%
15. B14  39%

Each molecule was assayed on E. coli cells expressing an HPPD polypeptide (assay: Brown Color Assay on solid LB-agar, visual score of brown pigment). Details: 25 μM Cmpd. 1, scored after 7 days.
Format: cell-based
Parameters: key to brown pigment formation: +++: a dark brown coloring as seen for E. coli cells expressing one of the respective mutant HPPD polypeptide without inhibitor; ++: medium brown pigmentation; +: light brown pigmentation; 0: no brown pigmentation development was detected on the LB agar plates
Protocol: Mutant HPPD polypeptides were analyzed using a brown color assay (WO2014/043435). Bacterial cells expressing the mutant HPPD polypeptide according to the invention were assayed in 96 well format for HPPD inhibitor tolerance by spotting on solid media containing LB-agar, selection agent for the expression vector pSE420(RI)NX (WO2014/043435), 5 mM tyrosine (Sigma-Aldrich, St. Louis, USA), 42 mM succinate (Sigma-Aldrich, St. Louis, USA) and six different concentrations of the HPPD inhibitor herbicide Cmpd. 1 (0-500 μM). In the brown color assay, an overnight culture of the E. coli cells expressing one of the respective mutant HPPD polypeptides were diluted to an OD600 of 1 and 10 μl extract was spotted in triplicates on plates containing 0, 25, 50, 100, 250, or 500 μM of Cmpd. 1. Plates were covered with airpore tape and incubated at 30 degrees C. After 24 hours, the cells were kept in darkness at room temperature and after 7 days the brown pigment formation was scored visually. In the presence of an HPPD inhibitor herbicide, this pigment formation is inhibited and the color of the agar plate will not alter, unless an HPPD inhibitor herbicide tolerant HPPD polypeptide is expressed and active. […] The “++” and “+” scores a medium and light brown pigmentation, respectively, and the “0” means that no brown pigmentation development was detected on the LB agar plates.

With B16 the brown pigment formation was 0.

With B17 the brown pigment formation was “++”.

Same assay, conditions: 50 μM Cmpd. 1, scored after 7 days

In the case of B16, the brown pigment formation is reported as 0.

In the case of B17, the brown pigment formation is reported as “++”.

Same assay, conditions: 100 μM Cmpd. 1, scored after 7 days

B16 was tested, and the brown pigment formation was 0.

For B17, the brown pigment formation was “++”.

Same assay, conditions: 250 μM Cmpd. 1, scored after 7 days

For B16, the brown pigment formation was 0.

For B17, the brown pigment formation was “+”.

Same assay, conditions: 500 μM Cmpd. 1, scored after 7 days

In order of falling brown pigment formation:
1. B16  0
2. B17  0

Same assay, conditions: 25, 50, 100, 250 and 500 μM Cmpd. 1

For B18, the “brown coloring compared with SEQ ID NO: 2, in words” value was “stronger brown coloring”.
For B19, the “brown coloring compared with SEQ ID NO: 2, in words” value was “stronger brown coloring”.
In the case of B20, the “brown coloring compared with SEQ ID NO: 2, in words” value is reported as “stronger brown coloring”.
